Test [1] deals with full-length WT HIV-1 integrase (IN) (HIV-1). In words: SEC; Superdex 200 10/300 GL; 20 µM IN; 20 mM HEPES pH 7.5, 1 M NaCl, 10% glycerol, 5 mM BME; 0.3 mL/min; incubated 1 h at 4°C; size by protein standards; no inhibitor. On the technique in general: SEC sorts molecules by how far they enter the pores of the column.
The target in test [2] is full-length HIV-1 integrase Y99H/A128T (HIV-1). Described as above.

As usually defined, the stoichiometry N is a count of units in the complex or per binding partner.

In test [1], “full-length WT HIV-1 integrase (IN) (enzyme)” displayed a stoichiometry N of 4.

In turn, “full-length HIV-1 integrase Y99H/A128T (enzyme)” had a stoichiometry N in test [2] of 4.

The values above are taken from PMC11559089.
